What was measured:
[1] = biological target: T1, 人CD20蛋白 (human CD20) (human) (UniProt P11836); experiment: indirect ELISA, recombinant human CD20 coated, rabbit anti-human IgG Fc-HRP
T1 sequence (looked up): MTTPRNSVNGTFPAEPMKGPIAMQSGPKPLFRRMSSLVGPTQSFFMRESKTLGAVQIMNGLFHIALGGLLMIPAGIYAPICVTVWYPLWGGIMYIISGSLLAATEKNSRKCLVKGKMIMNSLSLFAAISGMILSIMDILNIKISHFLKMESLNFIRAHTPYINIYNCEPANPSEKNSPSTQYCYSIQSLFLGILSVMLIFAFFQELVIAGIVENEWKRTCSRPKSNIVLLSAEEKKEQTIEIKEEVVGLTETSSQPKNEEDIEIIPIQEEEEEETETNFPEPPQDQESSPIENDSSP

[2] = biological target: T1, 人CD20蛋白 (human CD20) (human); experiment: SPR (Biacore), antibody captured on anti-human capture CM5 chip, antigen as analyte from 10 nM, 1:1 kinetic model

- EC50 [1]: 0.0256 µg/mL
- Kd [2]: 21.8 pM
B1: 人源化抗体HB12 (humanized anti-CD20 antibody HB12) (antibody, part only; not given: IgG1 and kappa constant regions, human IgG1, V domains shown, part only)
VH: QVQLVQSGSELKKPGASVKVSCKASSYMHAVGMNWVKQAPGQGFEWMGWIYADSGTGGVTYVKGIIPTYAQGFTGRFVFSLDTSVSTAYLQISSLKAEDTATYYCDYYDGLYGMDVYGAGSFWGQGTTVTVSS

Source: patent CN111100204A
